In the oligonucleotide strings, read from the 5' end, every base follows the letter of its sugar. An asterisk marks phosphorothioate; unmarked linkages are phosphodiester. Other units and linkages are bracketed, terminal groups are in braces. A string of capitals states the bases alone. m = 2'-O-methyl; r = 2'-OH (RNA)
B1: GA116: ANGPTL3 gRNA; protospacer GTAGAATTTTTTCTTCTAGG (SEQ ID NO: 114) (nucleic acid)
guide: GUAGAATTTTTTCTTCTAGGGTTTTAGAGCTAGAAATAGCAAGTTAAAATAAGGCTAGTCCGTTATCAACTTGAAAAAGTGGCACCGAGTCGGTGCTTTT
modifications: 2'-O-methyl at 1, 2, other sugars, backbone and T or U not given here; further chemistry not fully specified
B2: GA108: ANGPTL3 gRNA; protospacer TCCCAACTGAAGGAGGCCAT (SEQ ID NO: 106) (nucleic acid)
guide: UCCCAACTGAAGGAGGCCATGTTTTAGAGCTAGAAATAGCAAGTTAAAATAAGGCTAGTCCGTTATCAACTTGAAAAAGTGGCACCGAGTCGGTGCTTTT
modifications: 2'-O-methyl at 1, 2, other sugars, backbone and T or U not given here; further chemistry not fully specified
B3: GA111: ANGPTL3 gRNA; protospacer GCCAATGGCCTCCTTCAGTT (SEQ ID NO: 109) (nucleic acid)
guide: GCCAATGGCCTCCTTCAGTTGTTTTAGAGCTAGAAATAGCAAGTTAAAATAAGGCTAGTCCGTTATCAACTTGAAAAAGTGGCACCGAGTCGGTGCTTTT
modifications: 2'-O-methyl at 1, 2, other sugars and backbone not given here; further chemistry not fully specified
B4: GA113: ANGPTL3 gRNA; protospacer ATTCTGGAGGAAATAACTAG (SEQ ID NO: 111) (nucleic acid)
guide: AUTCTGGAGGAAATAACTAGGTTTTAGAGCTAGAAATAGCAAGTTAAAATAAGGCTAGTCCGTTATCAACTTGAAAAAGTGGCACCGAGTCGGTGCTTTT
modifications: 2'-O-methyl at 1, 2, other sugars, backbone and T or U not given here; further chemistry not fully specified
B5: GA109: ANGPTL3 gRNA; protospacer GGCCTCCTTCAGTTGGGACA (SEQ ID NO: 107) (nucleic acid)
guide: GGCCTCCTTCAGTTGGGACAGTTTTAGAGCTAGAAATAGCAAGTTAAAATAAGGCTAGTCCGTTATCAACTTGAAAAAGTGGCACCGAGTCGGTGCTTTT
modifications: 2'-O-methyl at 1, 2, other sugars and backbone not given here; further chemistry not fully specified
B6: GA110: ANGPTL3 gRNA; protospacer GACCATGTCCCAACTGAAGG (SEQ ID NO: 108) (nucleic acid)
guide: GACCATGTCCCAACTGAAGGGTTTTAGAGCTAGAAATAGCAAGTTAAAATAAGGCTAGTCCGTTATCAACTTGAAAAAGTGGCACCGAGTCGGTGCTTTT
modifications: 2'-O-methyl at 1, 2, other sugars and backbone not given here; further chemistry not fully specified
B7: GA391 (nucleic acid)
guide: mC*mC*rGrCrArCrCrUrUrGrGrCrGrCrArGrCrGrGmGrUrUrUrUrArGmAmGmCmUmArGmAmAmAmUmAmGmCmAmArGrUrUmArAmArAmUrAmAmGmGmCmUmArGrUmCmCrGrUrUrAmUmCrArAmCmUmUrGmAmAmAmAmAmGmUmGrGmCmAmCmCmGmAmGmUmCmGmGmUmGmCmU*mU*mU*mU
B8: GA115: ANGPTL3 gRNA; protospacer AACATAGCAAATCTTGATTT (SEQ ID NO: 113) (nucleic acid)
guide: AACATAGCAAATCTTGATTTGTTTTAGAGCTAGAAATAGCAAGTTAAAATAAGGCTAGTCCGTTATCAACTTGAAAAAGTGGCACCGAGTCGGTGCTTTT
modifications: 2'-O-methyl at 1, 2, other sugars and backbone not given here; further chemistry not fully specified
B9: GA129: ANGPTL3 gRNA; protospacer AGTTCTTGGTGCTCTTGGCT (SEQ ID NO: 127) (nucleic acid)
guide: AGTTCTTGGTGCTCTTGGCTGTTTTAGAGCTAGAAATAGCAAGTTAAAATAAGGCTAGTCCGTTATCAACTTGAAAAAGTGGCACCGAGTCGGTGCTTTT
modifications: 2'-O-methyl at 1, 2, other sugars and backbone not given here; further chemistry not fully specified

System: ANGPTL3 gene
Assay: ANGPTL3 gRNA/SpCas9 editing in primary human hepatocytes (Table 3)
Type: cell-based
Conditions: not given
Experimental: (§1) In set of experiments, PCSK9 gRNAs were co-transfected with an equivalent amount (1:1 ratio by weight) of in vitro transcribed commercially available SpCas9 mRNA MS002 purchased from TriLink Biotechnologies into primary human hepatocytes at 2500, 500, or 100 ng/RNA/mL and processed as described in detailed methods. Extracted genomic DNA was analyzed for gene editing at the target site with next-generation sequencing of PCR amplicons generated around the target sites. Samples were prepared using the Nextera XT DNA library preparation kit (Illumina) according to the manufacturer's protocol. Briefly, two rounds of PCR were performed first to amplify the region of interest and second to add DNA sequences required for next generation sequencing and sample identification to the initial product. The final amplicon was sequenced on the Illumina MiSeq instrument according to the manufacturer's protocol. A wide range of editing activities (Table 2) were observed. In a second set of experiments, ANGPTL3 gRNAs were co-transfected with an equivalent amount of in vitro transcribed SpCas9 mRNA (1:1 ratio by weight) into primary human hepatocytes and processed and analyzed similarly (Table 3).
(§2) Plating, culturing, and transfection of primary hepatocytes. Primary human liver hepatocytes (PHH) and primary cynomolgus liver hepatocytes (PCH) from BioIVT were cultured per the manufacturer's protocol. Briefly, primary human hepatocytes and primary cyno hepatocytes were obtained as frozen aliquots from BioIVT. Four lots of primary human hepatocytes, each derived from a de-identified individual donor, were used for the experiments: STL (main donor) was used for all experiments, including screening experiments and off-target experiments; HLY, JLP, and TLY were used for off-target experiments. The HFG lot of primary cyno hepatocytes were used for experiments. Following the manufacturer's instructions, cells were thawed and rinsed prior to plating in 24-well plates that had been coated with bovine collagen overnight, with a density of approximate 350,000 cells/well in INVITROGRO hepatocyte medium supplemented with TORPEDO antibiotic mix (BioIVT). The cells were thawed and resuspended in hepatocyte thawing medium followed by centrifugation at 100 g for 10 min at 4° C. The supernatant was discarded, and the pelleted cells resuspended in hepatocyte plating medium. Each vial contains approximately 5 million cells that were used for plating one 24-well plate. Plated cells were allowed to settle and adhere for 4-6 h in a tissue culture incubator at 37° C. under 5% CO2 atmosphere. After incubation, cells were checked for monolayer formation. The incubating media were then replaced with fresh hepatocyte maintenance media (complete INVITROGRO medium obtained from BioIVT, the cell line provider). The cells thus became ready for transfection. Each of the gRNAs were co-transfected with an equivalent amount of in vitro transcribed ABE8.8 mRNA (1:1 ratio by molecular weight) into primary human hepatocytes via MessengerMax reagent (Lipofectamine), using various dilutions to assess for editing activity at different concentrations of test article. MessengerMAX from Thermo Fisher is used for transfection. Solution A: desired amount of guide RNA is mixed with 1:1 wt ratio of mRNA in OptiMEM. Solution B: MessengerMAX in OptiMEM. After mixing solutions A and B, the mixture was incubated at room temperature for 20 min. 60 μL of the incubated solution was added dropwise to each cell wells. For protospacer sequences that were a perfect match to the corresponding cynomolgous monkey PCSK9 or ANGPTL3 gene sequence, each gRNA was also co-transfected with an equivalent amount of ABE8.8 mRNA (1:1 ratio by molecular weight) into primary cynomolgous hepatocytes, and followed the same transfection protocol. The cells were then allowed to remain at 37° C. for 3 days. […]

Row | Molecule | Human Primary Hepatocyte Editing % 100 ng/ml [%] | Human Primary Hepatocyte Editing % 500 ng/mL [%]
1 | B1 | 3.78 | 16.33
2 | B2 | 4.95 | 19.43
3 | B3 | 10.72 | 24.08
4 | B4 | 6.00 | 19.97
5 | B5 | 6.60 | 18.07
6 | B6 | 5.37 | 13.63

System: PCSK9 gene splice site
Assay: not given
Type: cell-based, human
Conditions: Human Primary Hepatocytes; 312.5 ng/mL; rep1; gRNA co-transfected with ABE8.8 mRNA 1:1 by weight
Experimental: PCSK9 gRNAs were co-transfected with an equivalent amount of in vitro transcribed ABE8.8 mRNA MA002 (1:1 ratio by weight) into primary hepatocytes and processed as described in detailed methods. In one set of experiments, extracted genomic DNA was analyzed for base editing of the target splice site with next-generation sequencing of PCR amplicons generated around the target sites. Samples were prepared using the Nextera XT DNA library preparation kit (Illumina) according to the manufacturer's protocol. Briefly, two rounds of PCR were performed first to amplify the region of interest and second to add DNA sequences required for next generation sequencing and sample identification to the initial product. The final amplicon was sequenced on the Illumina MiSeq instrument according to the manufacturer's protocol.
Similarly, three gRNAs (GA098, GA099, GA100) were synthesized matching the 5′-[…]-3′ (SEQ ID NO: 15) (GA091) human protospacer sequence, as well as four gRNAs (GA067/GA101, GA102, GA103, GA347) matching the 5′-[…]-3′ (SEQ ID NO: 14) (GA067) cynomolgus protospacer sequence, but with more extensive chemical modifications of various kinds (Table 1). GA066 and GA095 contain the same chemical composition and modification pattern, as do GA067 and GA101 with one another. […] Each of the gRNAs described in Table 8, with an equivalent amount of in vitro transcribed ABE8.8 mRNA MA002 (1:1 ratio by weight), were co-transfected into primary human hepatocytes and primary cynomolgus hepatocytes via MessengerMax reagent, using various dilutions to assess for editing activity at different concentrations of test article. Three days after transfection, genomic DNA was harvested from the hepatocytes, and then assessed for base editing of the target splice site with next-generation sequencing.
Modifications and/or truncations to either the spacer or tracr portion of the gRNA was assessed by alteration of the GA066 spacer (5′-[…]-3′ (SEQ ID NO: 13)) (Table 12). […] Each of the gRNAs with an equivalent amount of in vitro transcribed ABE8.8 mRNA (1:1 ratio by weight) were co-transfected into primary human hepatocytes and primary cynomolgus hepatocytes and processed as described in detailed methods. […]

Row | Molecule | Editing % at Position 6 [%]
7 | B7 | 16.86

Same assay, conditions: Human Primary Hepatocytes; 312.5 ng/mL; rep2; gRNA co-transfected with ABE8.8 mRNA 1:1 by weight

Row | Molecule | Editing % at Position 6 [%]
8 | B7 | 15.78

Same assay, conditions: Human Primary Hepatocytes; 625 ng/mL; rep1; gRNA co-transfected with ABE8.8 mRNA 1:1 by weight

Row | Molecule | Editing % at Position 6 [%]
9 | B7 | 27.12

Same assay, conditions: Human Primary Hepatocytes; 625 ng/mL; rep2; gRNA co-transfected with ABE8.8 mRNA 1:1 by weight

Row | Molecule | Editing % at Position 6 [%]
10 | B7 | 18.67

Same assay, conditions: Human Primary Hepatocytes; 1250 ng/mL; rep1; gRNA co-transfected with ABE8.8 mRNA 1:1 by weight

Row | Molecule | Editing % at Position 6 [%]
11 | B7 | 25.43

Same assay, conditions: Human Primary Hepatocytes; 1250 ng/mL; rep2; gRNA co-transfected with ABE8.8 mRNA 1:1 by weight

Row | Molecule | Editing % at Position 6 [%]
12 | B7 | 27.3

Same assay, conditions: Human Primary Hepatocytes; 2500 ng/mL; rep1; gRNA co-transfected with ABE8.8 mRNA 1:1 by weight

Row | Molecule | Editing % at Position 6 [%]
13 | B7 | 25.58

Same assay, conditions: Human Primary Hepatocytes; 2500 ng/mL; rep2; gRNA co-transfected with ABE8.8 mRNA 1:1 by weight

Row | Molecule | Editing % at Position 6 [%]
14 | B7 | 30.06

System: ANGPTL3 gene
Assay: ANGPTL3 gRNA/SpCas9 editing in primary cynomolgus hepatocytes (Table 3)
Type: cell-based, cynomolgus monkey
Conditions: not given
Experimental: as §1, §2

Row | Molecule | Cyno Primary Hepatocyte Editing % 100 ng/mL [%] | Cyno Primary Hepatocyte Editing % 500 ng/ml [%]
15 | B1 | 10.84 | 19.83
16 | B2 | 4.11 | 15.49
17 | B3 | 22.61 | 28.98
18 | B8 | 12.58 | 25.51
19 | B9 | 5.36 | 20.06
20 | B4 | 12.07 | 26.67
21 | B5 | 4.15 | 15.11
22 | B6 | 8.59 | 15.99

— US20250152746A1, “BASE EDITING OF ANGPTL3 AND METHODS OF USING SAME FOR TREATMENT OF DISEASE” (Verve Therapeutics, Inc., priority 2020, published 2025)
